The RNAGym collection of RNA variant scans (doi:10.7554/elife.90254)

B1: LINE1-full (parent)
chain: UACGUAGGUGGUUUUCCCCUGAUAGUGCUAAGGGGGCCUGGAAGUUUGGACUGGGCAGAGCUCAACACAGCGUGGCAAAGUGGCUGUGGCUAGACUGCCUCUCUGGAUUCCUCGUCACUCAGCAGGGCAUCUCUGAGAGAAAUGCC

Variants of: B1
Assay: self-cleavage, relative activity (ratio to wild type); higher = more cleavage; in vitro, sequencing; the parent is a self-cleaving ribozyme
A42G G122A gave a self-cleavage of 0.92.
In the case of A42G G127U, the self-cleavage is reported as 1.9.
In the case of A42G G135A, the self-cleavage is reported as 1.69.
Work on A42G G139A yielded a self-cleavage of 1.28.
With A42G G144A the self-cleavage was 1.17.
For A42G U45C, the self-cleavage was 1.2.
For A42G U46A, the self-cleavage was 1.11.
For A42G U46G, the self-cleavage was 1.02.
In the case of A42G U47C, the self-cleavage is reported as 1.54.
Work on A42G U47G yielded a self-cleavage of 0.88.
A42G U62C gave a self-cleavage of 0.08.
Work on A42G U73C yielded a self-cleavage of 1.5.
For A42G U85A, the self-cleavage was 0.15.
For A42G U87A, the self-cleavage was 0.1.
For A42G U87C, the self-cleavage was 0.41.
For A42G U91C, the self-cleavage was 0.68.
A42G U96C gave a self-cleavage of 0.12.
Work on A42G U96G yielded a self-cleavage of 0.
In the case of A42G U102C, the self-cleavage is reported as 1.36.
A42G U104A showed a self-cleavage of 1.13.
In the case of A42G U104C, the self-cleavage is reported as 1.81.
Variant A42G U108A has a self-cleavage of 0.71.
With A42G U112C the self-cleavage was 1.54.
With A42G U115C the self-cleavage was 1.67.
A42G U119C showed a self-cleavage of 1.35.
For A42G U134C, the self-cleavage was 1.36.
Variant A42G U143A has a self-cleavage of 1.85.
Work on A42G U143C yielded a self-cleavage of 1.3.
For A42U, the self-cleavage was 0.98.
In the case of A42U A50G, the self-cleavage is reported as 0.92.
With A42U A59G the self-cleavage was 0.12.
A42U A65G showed a self-cleavage of 0.06.
Work on A42U A67G yielded a self-cleavage of 0.21.
With A42U A78G the self-cleavage was 0.88.
For A42U A92G, the self-cleavage was 0.09.
In the case of A42U A107U, the self-cleavage is reported as 0.92.
In the case of A42U A117G, the self-cleavage is reported as 1.21.
With A42U A117U the self-cleavage was 1.28.
With A42U A138U the self-cleavage was 1.34.
A42U A140G showed a self-cleavage of 1.29.
Variant A42U A140U has a self-cleavage of 1.05.
For A42U A141G, the self-cleavage was 0.9.
In the case of A42U A142U, the self-cleavage is reported as 0.57.
With A42U C56A the self-cleavage was 0.05.
Work on A42U C84U yielded a self-cleavage of 0.09.
In the case of A42U C120U, the self-cleavage is reported as 0.4.
For A42U G53A, the self-cleavage was 1.72.
A42U G82A gave a self-cleavage of 1.38.
A42U U45A gave a self-cleavage of 0.95.
A42U U46C gave a self-cleavage of 1.37.
Work on A42U U47C yielded a self-cleavage of 1.7.
With A42U U52C the self-cleavage was 0.54.
A42U U81A gave a self-cleavage of 1.39.
A42U U85C showed a self-cleavage of 0.13.
Work on A42U U87A yielded a self-cleavage of 0.07.
Work on A42U U91C yielded a self-cleavage of 0.27.
In the case of A42U U96C, the self-cleavage is reported as 0.06.
A42U U104A showed a self-cleavage of 1.15.
A42U U108C gave a self-cleavage of 1.33.
A42U U109C gave a self-cleavage of 0.71.
A42U U115A showed a self-cleavage of 1.39.
With A42U U115C the self-cleavage was 1.15.
A42U U115G showed a self-cleavage of 1.04.
With A42U U119A the self-cleavage was 0.98.
A42U U130C gave a self-cleavage of 1.32.
Variant A42U U132C has a self-cleavage of 1.01.
For A42U U134A, the self-cleavage was 1.09.
For A42U U134C, the self-cleavage was 1.34.
In the case of A43C, the self-cleavage is reported as 1.35.
A43C A65U gave a self-cleavage of 0.14.
A43C A79G gave a self-cleavage of 0.75.
A43C A92G showed a self-cleavage of 0.18.
Variant A43C A141U has a self-cleavage of 1.46.
A43C G105U showed a self-cleavage of 1.53.
Variant A43C U45C has a self-cleavage of 0.51.
Variant A43C U45G has a self-cleavage of 0.66.
For A43C U87A, the self-cleavage was 0.09.
A43C U100C showed a self-cleavage of 1.99.
Variant A43C U108C has a self-cleavage of 1.78.
In the case of A43C U109C, the self-cleavage is reported as 0.26.
With A43C U112C the self-cleavage was 2.1.
For A43C U119C, the self-cleavage was 1.62.
A43G gave a self-cleavage of 1.21.
For A43G A50C, the self-cleavage was 1.73.
Variant A43G A50G has a self-cleavage of 1.24.
A43G A59G gave a self-cleavage of 0.14.
With A43G A64C the self-cleavage was 0.2.
For A43G A65C, the self-cleavage was 0.
Work on A43G A65G yielded a self-cleavage of 0.09.
Variant A43G A65U has a self-cleavage of 0.15.
Work on A43G A67C yielded a self-cleavage of 0.05.
A43G A67G showed a self-cleavage of 0.46.
Work on A43G A69G yielded a self-cleavage of 0.58.
A43G A69U gave a self-cleavage of 0.08.
Variant A43G A77U has a self-cleavage of 1.05.
For A43G A78C, the self-cleavage was 1.74.
For A43G A79C, the self-cleavage was 2.63.
Work on A43G A92G yielded a self-cleavage of 0.22.
Variant A43G A94C has a self-cleavage of 0.14.
Variant A43G A94U has a self-cleavage of 0.16.
Work on A43G A117G yielded a self-cleavage of 0.71.
Variant A43G A117U has a self-cleavage of 1.93.
With A43G A121G the self-cleavage was 1.12.
Work on A43G A121U yielded a self-cleavage of 1.23.
A43G A129G showed a self-cleavage of 1.48.
A43G A129U gave a self-cleavage of 0.95.
A43G A138U showed a self-cleavage of 1.31.
Work on A43G A140G yielded a self-cleavage of 1.35.
In the case of A43G A141G, the self-cleavage is reported as 1.29.
Variant A43G A141U has a self-cleavage of 1.61.
A43G A142G showed a self-cleavage of 1.5.
A43G C63G gave a self-cleavage of 0.1.
With A43G C71U the self-cleavage was 0.15.
In the case of A43G C95U, the self-cleavage is reported as 0.16.
For A43G C110U, the self-cleavage was 1.8.
A43G C123U showed a self-cleavage of 1.21.
With A43G C128G the self-cleavage was 0.77.
A43G C146A gave a self-cleavage of 1.09.
A43G G48A showed a self-cleavage of 1.54.
A43G G54A gave a self-cleavage of 0.41.
With A43G G58A the self-cleavage was 0.05.
A43G G60A gave a self-cleavage of 0.04.
Work on A43G G72U yielded a self-cleavage of 1.32.
With A43G G75U the self-cleavage was 0.99.
In the case of A43G G83A, the self-cleavage is reported as 1.03.
In the case of A43G G89U, the self-cleavage is reported as 0.04.
Work on A43G G93U yielded a self-cleavage of 0.05.
Work on A43G G114A yielded a self-cleavage of 1.05.
A43G G125A showed a self-cleavage of 1.24.
In the case of A43G G125U, the self-cleavage is reported as 1.02.
In the case of A43G G126U, the self-cleavage is reported as 1.28.
A43G G127U showed a self-cleavage of 1.87.
For A43G U45G, the self-cleavage was 1.53.
With A43G U46A the self-cleavage was 1.17.
For A43G U47A, the self-cleavage was 0.96.
A43G U52G gave a self-cleavage of 1.64.
Variant A43G U62A has a self-cleavage of 0.1.
Work on A43G U73G yielded a self-cleavage of 1.56.
With A43G U81A the self-cleavage was 1.68.
A43G U81G gave a self-cleavage of 1.12.
For A43G U87A, the self-cleavage was 0.08.
Work on A43G U87G yielded a self-cleavage of 0.16.
Work on A43G U91A yielded a self-cleavage of 0.89.
Variant A43G U96C has a self-cleavage of 0.09.
In the case of A43G U100A, the self-cleavage is reported as 0.89.
Variant A43G U102A has a self-cleavage of 0.91.
In the case of A43G U102C, the self-cleavage is reported as 1.13.
Variant A43G U102G has a self-cleavage of 0.84.
A43G U104A gave a self-cleavage of 0.42.
A43G U108A showed a self-cleavage of 0.71.
For A43G U115A, the self-cleavage was 0.95.
For A43G U115C, the self-cleavage was 1.52.
A43G U115G showed a self-cleavage of 1.02.
For A43G U119A, the self-cleavage was 1.15.
For A43G U130A, the self-cleavage was 1.51.
Work on A43G U130C yielded a self-cleavage of 1.2.
Work on A43G U132A yielded a self-cleavage of 1.55.
For A43G U132C, the self-cleavage was 1.1.
A43G U134C gave a self-cleavage of 1.09.
For A43G U134G, the self-cleavage was 0.97.
Variant A43G U143A has a self-cleavage of 1.24.
A43U showed a self-cleavage of 1.26.
For A43U A50G, the self-cleavage was 1.29.
Work on A43U A59G yielded a self-cleavage of 0.03.
A43U A64G showed a self-cleavage of 0.42.
Variant A43U A69U has a self-cleavage of 0.05.
A43U A77G gave a self-cleavage of 2.1.
